pKd: −log10 of the molar value.
Key:
[1] = target: RGM of chick tectal membranes (chick) (UniProt Q8JG54); assay: cell-based or functional assay
[2] = target: DCC (Deleted in Colorectal Cancer) expressed on COS-7 cells; assay: RGM-AP binding to transfected COS-7 cells
[3] = target: mouse Neogenin expressed on COS-7 cells (mouse) (UniProt P97798); assay: AP fusion binding to transfected COS-7 cells, saturation and Scatchard analysis
Chain of UniProt P97798 (P97798 37-1492): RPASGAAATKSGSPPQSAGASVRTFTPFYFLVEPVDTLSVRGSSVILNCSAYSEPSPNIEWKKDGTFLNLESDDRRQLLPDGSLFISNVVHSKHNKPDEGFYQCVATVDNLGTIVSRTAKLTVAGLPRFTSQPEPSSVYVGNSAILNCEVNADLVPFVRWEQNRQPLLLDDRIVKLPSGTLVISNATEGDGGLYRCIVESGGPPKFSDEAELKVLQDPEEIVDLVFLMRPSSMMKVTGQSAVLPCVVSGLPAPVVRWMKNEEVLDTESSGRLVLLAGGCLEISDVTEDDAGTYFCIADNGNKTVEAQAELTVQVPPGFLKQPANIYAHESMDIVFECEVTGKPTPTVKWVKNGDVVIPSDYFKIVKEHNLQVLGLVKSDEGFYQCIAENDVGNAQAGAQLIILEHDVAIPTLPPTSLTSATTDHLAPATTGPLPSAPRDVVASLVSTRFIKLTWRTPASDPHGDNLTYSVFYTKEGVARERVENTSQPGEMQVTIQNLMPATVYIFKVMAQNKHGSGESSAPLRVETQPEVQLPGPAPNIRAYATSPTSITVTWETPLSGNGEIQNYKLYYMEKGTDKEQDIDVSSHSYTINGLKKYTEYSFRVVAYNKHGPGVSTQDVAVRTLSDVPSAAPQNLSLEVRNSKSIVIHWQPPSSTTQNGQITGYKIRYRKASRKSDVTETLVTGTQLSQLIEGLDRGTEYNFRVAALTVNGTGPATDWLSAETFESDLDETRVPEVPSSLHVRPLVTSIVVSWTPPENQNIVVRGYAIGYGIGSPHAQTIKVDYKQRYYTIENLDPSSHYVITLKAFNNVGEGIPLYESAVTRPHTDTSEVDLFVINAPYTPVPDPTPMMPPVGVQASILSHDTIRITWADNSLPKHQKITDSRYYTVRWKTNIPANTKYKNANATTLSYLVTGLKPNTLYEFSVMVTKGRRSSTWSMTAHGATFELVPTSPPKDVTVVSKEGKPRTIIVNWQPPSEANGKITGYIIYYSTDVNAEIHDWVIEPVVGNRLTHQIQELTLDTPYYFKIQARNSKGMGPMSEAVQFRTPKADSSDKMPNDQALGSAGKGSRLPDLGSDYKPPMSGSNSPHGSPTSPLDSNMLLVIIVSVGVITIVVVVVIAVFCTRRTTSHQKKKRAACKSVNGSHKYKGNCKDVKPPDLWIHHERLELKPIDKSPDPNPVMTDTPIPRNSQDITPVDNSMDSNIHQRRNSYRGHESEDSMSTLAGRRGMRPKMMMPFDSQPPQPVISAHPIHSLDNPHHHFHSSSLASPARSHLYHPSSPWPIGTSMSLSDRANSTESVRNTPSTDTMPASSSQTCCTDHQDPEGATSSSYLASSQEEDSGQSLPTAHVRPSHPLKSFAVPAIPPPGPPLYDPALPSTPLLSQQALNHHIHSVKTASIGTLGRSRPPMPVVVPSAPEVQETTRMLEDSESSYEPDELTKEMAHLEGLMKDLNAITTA

Chain of UniProt Q8JG54 (Q8JG54 150-404 limits assumed): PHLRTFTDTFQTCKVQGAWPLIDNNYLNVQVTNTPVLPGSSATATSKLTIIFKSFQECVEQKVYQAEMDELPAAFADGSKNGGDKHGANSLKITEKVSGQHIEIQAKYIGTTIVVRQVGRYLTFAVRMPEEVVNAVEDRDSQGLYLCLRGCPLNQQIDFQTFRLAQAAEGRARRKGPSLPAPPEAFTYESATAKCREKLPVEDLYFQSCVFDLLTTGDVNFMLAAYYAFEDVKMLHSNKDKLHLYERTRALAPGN

Substance | retinotectal stripe assay: blockade of retinal axon stripe preference [1] [nM] | fold lower affinity than for Neogenin [2] [fold] | pKd [3]
Soluble ectodomain of chick Neogenin-1 (1-1027) with a carboxyl MycHis tag (from UniProt Q90610 1-1027) (receptor) | 400 |  | 
chick RGM-AP fusion protein (chick RGM aa 28 to 403 fused to human placental alkaline phosphatase, carboxy-terminal Myc His tag) (from UniProt Q8JG54 28-403; P05187 23-511) (ligand) |  | 50 | 9.64

— US20130101605A1
